B1: SEQ ID NO 9 (peptide)
peptide: VLVHPQWVL
notes: Synthetic 9-mer peptide of PSA (GenBank M26663)
B2: SEQ ID NO 3 (peptide)
peptide: ILLGRHSLF
notes: as for B1
B3: SEQ ID NO 6 (peptide)
peptide: ILSRIVGGW
notes: as for B1
B4: SEQ ID NO 5 (peptide)
peptide: QVFQVSHSF
notes: as for B1
B5: SEQ ID NO 7 (peptide)
peptide: VHPQKVTKF
notes: as for B1
B6: SEQ ID NO 8 (peptide)
peptide: GVLQGITSW
notes: as for B1

Molecular target: T1, HLA-A2402 molecule, which is a product of the HLA-A*2402 gene (human)
T1 construct: MHC class I molecule on C1R-A24 cells, emptied by acid and reassociated with added β2m and the test peptide; also called HLA-A24 molecule; human HLA-A2402 molecule
Assay: flow cytometry; reassociation of peptide, added β2m and HLA-A2402 on acid-stripped C1R-A24 cells, stained with mAb 17A12
Method: After neutralization, purified β2m was added to C1R-A24 cells, the obtained product was added to serial dilutions of a peptide, and incubated on ice for 4 hours.
Subsequently, the MHC-pep count per C1R-A24 cell (proportional to the strength of fluorescence of the above-mentioned fluorescent antibody) was quantitatively measured using an FACScan fluorescence-activated cell sorter (Becton Dickinson Biosciences). A binding dissociation constant Kd value between the HLA-A24 molecule and the peptide was calculated from the average strength of fluorescence per cell by a published method (Udaka et al., Immunogenetics, 51, 816-828, 2000).

Binder | -log Kd
B1 | 6.34 -log Kd
B2 | 7.47 -log Kd
B3 | 7.21 -log Kd
B4 | 7.32 -log Kd
B5 | 6.65 -log Kd
B6 | 5.38 -log Kd

From patent US20080306243A1 (NEC, published 2008)
